US20130196348A1 (ACTELION PHARMACEUTICALS, published 2013)

target: T1, human GALR2 (Galanin Receptor 2) (human, UniProt O43603 1-387); assay: cell-based or functional assay
T1 sequence: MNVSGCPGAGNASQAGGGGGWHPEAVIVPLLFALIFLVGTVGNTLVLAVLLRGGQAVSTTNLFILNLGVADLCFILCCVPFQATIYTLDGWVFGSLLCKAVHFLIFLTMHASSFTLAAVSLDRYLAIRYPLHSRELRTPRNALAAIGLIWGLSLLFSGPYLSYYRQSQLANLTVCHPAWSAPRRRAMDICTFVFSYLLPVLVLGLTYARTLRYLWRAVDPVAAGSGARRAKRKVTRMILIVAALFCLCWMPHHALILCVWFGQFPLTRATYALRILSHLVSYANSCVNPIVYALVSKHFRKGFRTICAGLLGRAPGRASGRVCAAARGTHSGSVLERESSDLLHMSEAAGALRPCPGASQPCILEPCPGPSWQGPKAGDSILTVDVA

Binder | FLIPR EC50 | Aequorin EC50
NWTPQAALYLKGAQG [NWTPQAALYLKGAQG (SEQ ID NO: 27)] | 3.4 nM | 
NWTPQAMLYLKGAQP [NWTPQAMLYLKGAQP (SEQ ID NO: 41)] | 0.3 nM | 
NWTAQAMLYLKGAQG [NWTAQAMLYLKGAQG (SEQ ID NO: 25)] | 3.6 nM | 
PWTPQAMLYLKGAQG [PWTPQAMLYLKGAQG (SEQ ID NO: 33)] | 0.1 nM | 
NWTPQAMLYLAGAQG [NWTPQAMLYLAGAQG (SEQ ID NO: 29)] | 9.6 nM | 
NWTPQAMLYLPGAQG [NWTPQAMLYLPGAQG (SEQ ID NO: 37)] | 296 nM | 
NWTPQAMLYLKGA [NWTPQAMLYLKGA (SEQ ID NO: 18)] | 4.3 nM | 
NWTPQAMLYLKGPQG [NWTPQAMLYLKGPQG (SEQ ID NO: 39)] | 0.3 nM | 
NWTPQAMLYLKGAQA [NWTPQAMLYLKGAQA (SEQ ID NO: 32)] | 2 nM | 
NWAPQAMLYLKGAQG [NWAPQAMLYLKGAQG (SEQ ID NO: 24)] | 10.9 nM | 
NWTPQAMLYLK [NWTPQAMLYLK (SEQ ID NO: 20)] | 1.9 nM | 
WTPQAMLYLKGAQG [WTPQAMLYLKGAQG (SEQ ID NO: 22)] | 4.8 nM | 
AWTPQAMLYLKGAQG [AWTPQAMLYLKGAQG (SEQ ID NO: 23)] | 0.7 nM | 
NWTPQAMLYLKGAQGH [rat Neuropeptide Q (SEQ ID NO: 15)] |  | 5.06 nM
NWTPQAMLYLKGAQG [human Neuropeptide Q-Glycine (SEQ ID NO: 14)] | 4.2 nM | 5.7 nM
SPNPQLLTIPEAATILLASLQKSPEDEEKNFDQTRFLEDSLLNW [human pro Neuropeptide Q (73-116) (SEQ ID NO: 17)] |  | > 10000 nM
NWTPPAMLYLKGAQG [NWTPPAMLYLKGAQG (SEQ ID NO: 35)] | 97 nM | 
NWTPQAMLYLKPAQG [NWTPQAMLYLKPAQG (SEQ ID NO: 38)] | 20 nM | 
NWTPQPMLYLKGAQG [NWTPQPMLYLKGAQG (SEQ ID NO: 36)] | 55 nM | 
NWTPQAMLYLKG [NWTPQAMLYLKG (SEQ ID NO: 19)] | 6.7 nM | 
NWTPQAMLYLKGAQGRRFISDQS [human pro Neuropeptide Q (36-58) (SEQ ID NO: 16)] |  | 17.6 nM
NWTPQAMAYLKGAQG [NWTPQAMAYLKGAQG (SEQ ID NO: 28)] | 0.8 nM | 
NWPPQAMLYLKGAQG [NWPPQAMLYLKGAQG (SEQ ID NO: 34)] | 0.05 nM | 
NWTPQAMLYLKAAQG [NWTPQAMLYLKAAQG (SEQ ID NO: 30)] | 47 nM | 
NWTPQAMLYLKGAAG [NWTPQAMLYLKGAAG (SEQ ID NO: 31)] | 0.1 nM | 
NWTPAAMLYLKGAQG [NWTPAAMLYLKGAQG (SEQ ID NO: 26)] | 12.5 nM | 
NWTPQAMLYLKGAPG [NWTPQAMLYLKGAPG (SEQ ID NO: 40)] | 0.2 nM | 
NWTPQAMLYL [NWTPQAMLYL (SEQ ID NO: 21)] | 14 nM | 
